Data taken from US7491523B2, “Voltage-dependent calcium channel beta subunit functional core” (priority 2004, dated 2009).
fluorescein = fluorescein label

Legend:
Cav1.2 (α1C) = target: T1, Cav1.2 (α1C) (Homo sapiens, UniProt Q13936); assay: Two-electrode voltage clamp of Xenopus oocytes expressing Cav1.2, microinjected with β proteins; assay type: cell-based, Xenopus laevis; settings: for Current amplitude, I at 20 mV / Current amplitude, I at 30 mV: Xenopus oocytes, α1.2, mean ± SEM; for Steady-state activation, V1/2 (membrane potential for half-maximal activation) / Steady-state activation, k (slope factor): from I-V curve, mean ± SEM; for current amplitude increase and change of steady-state activation: Cav1.2 currents, protein injection into oocytes
T1 construct: expressed in transfected cells; host or cells: Xenopus laevis oocytes, mRNA injection
Method: Preparation of Xenopus laevis oocytes, injection of mRNA of VDCC subunits, and electrophysiological recording and analysis were performed, as described (Kang, M. G., Chen, C. C., Felix, R., Letts, V. A., Frankel, W. N., Mori, Y., and Campbell, K. P. (2001) J Biol Chem 276, 32917-32924). The negative control group were oocytes expressing CaV1.2 (α1C) subunit only by mRNA injection followed by injection of protein buffer (PB). The positive control group were oocytes expressing α1C and β3 subunits by mRNA injection, followed by injection of protein buffer (PB). The oocytes of experimental groups were injected with α1C mRNA followed by injection of VDCC β proteins, two days after the mRNA injection. Injection of protein ([…] of protein per oocyte) was performed similarly as mRNA injection. Oocytes injected with VDCC β proteins were incubated one more day and the expressed calcium channel currents were recorded using the two-electrode voltage-clamp technique.
In order to determine that the bacterially expressed, recombinant proteins were physiologically active, two-electrode, two-voltage-clamp measurements of Xenopus oocytes expressing α1 and microinjected with our protein samples was performed. […] The current amplitude increase and change of steady-state activation are statistically significant in all experimental groups except a group injected with β2a domain I protein.

[1] = target: T2, fluorescein-labeled AID peptide (AID motif of the CaV1.1 I-II linker) (Oryctolagus cuniculus, UniProt P07293, M367N); assay: AID peptide binding assay (fluorescence polarization): VDCC β constructs titrated against labeled AID peptide; settings: identical protein amounts, after incubation with TEV protease, FIG. 6c
T2 construct: fluorescein label (chemical, on the amino-terminus); made in house; host or cells: synthetic peptide, HPLC-purified
Source text: Fluorescence polarization was used to determine the equilibrium dissociation constant (KD) for the interaction between a fluorescein-labeled AID peptide, purified and various VDCC β constructs. The synthetic peptide was purified by HPLC reverse chromatography using a C18 column (Vydac) with a shallow acetonitrile gradient 20-80% (both solvents were supplemented with 0.05% trifluoracetic acid). Its sequence is derived from the AID motif of: the CaV1.1 I-II linker and is as follows: fluorescein-[…]-COOH (SEQ ID NO: 14). A mutant peptide, fluorescein-[…]-COOH (SEQ ID NO: 15) was prepared, in addition. […] Polarization measurements were taken with an ISS K2 fluorescence spectrophotometer at excitation and emission wavelengths of 492 and 520 nm, respectively, at 20° C., maintained by a temperature-controlled water bath. […] Binding isotherms for the various samples were measured three independent times. Binding data were analyzed in SigmaPlot (SPSS) by nonlinear regression used to fit a binding function as defined by the following equation: […]
where X is the concentration of free ligand, ΔP is the change in fluorescence polarization of the fluorophore (baseline polarization of the labeled peptide alone was subtracted), Bmax is the maximum change in polarization upon saturation and KD is the concentration of ligand required to reach half maximal binding. […]

β2a protein [2] = target: T3, β2a protein (Oryctolagus cuniculus, UniProt P54288, P148R); settings: single amino acid change Y to S; cited from earlier work
T3 construct: Equilibrium isotherm titrations were performed with full-length β2a and linkerless core β2a; 8xHis tag followed by a TEV protease site (N, cleaved yes); made in house; host or cells: E. coli BL-21 Tuner with RIL Codon Plus plasmid, modified pET21 vector

β2a protein [3] = target: T4, β2a protein (Oryctolagus cuniculus, UniProt P54288); assay: AID peptide binding assay (fluorescence polarization): AID peptide variants against β2a; design: species or system rabbit; settings: up to 350 nM β2a protein
T4 construct: Equilibrium isotherm titrations were performed with full-length β2a and linkerless core β2a; 8xHis tag followed by a TEV protease site (N, cleaved yes); made in house; host or cells: E. coli BL-21 Tuner with RIL Codon Plus plasmid, modified pET21 vector
Source text: Fluorescence polarization was used to determine the equilibrium dissociation constant (KD) for the interaction between a fluorescein-labeled AID peptide, purified and various VDCC β constructs. The synthetic peptide was purified by HPLC reverse chromatography using a C18 column (Vydac) with a shallow acetonitrile gradient 20-80% (both solvents were supplemented with 0.05% trifluoracetic acid). Its sequence is derived from the AID motif of: the CaV1.1 I-II linker and is as follows: fluorescein-[…]-COOH (SEQ ID NO: 14). A mutant peptide, fluorescein-[…]-COOH (SEQ ID NO: 15) was prepared, in addition. Increasing concentrations of protein were incubated with 0.5 nM labeled peptide for 10 min in the dark at room temperature. Polarization measurements were taken with an ISS K2 fluorescence spectrophotometer at excitation and emission wavelengths of 492 and 520 nm, respectively, at 20° C., maintained by a temperature-controlled water bath. Polarization measurements were made with integration times on the order of 20 seconds, achieving a standard deviation of 5 percent of signal. Binding isotherms for the various samples were measured three independent times. Binding data were analyzed in SigmaPlot (SPSS) by nonlinear regression used to fit a binding function as defined by the following equation: […]

β = settings: AID with β; cited from earlier work

T1 sequence (Q13936 whole entry, species assumed): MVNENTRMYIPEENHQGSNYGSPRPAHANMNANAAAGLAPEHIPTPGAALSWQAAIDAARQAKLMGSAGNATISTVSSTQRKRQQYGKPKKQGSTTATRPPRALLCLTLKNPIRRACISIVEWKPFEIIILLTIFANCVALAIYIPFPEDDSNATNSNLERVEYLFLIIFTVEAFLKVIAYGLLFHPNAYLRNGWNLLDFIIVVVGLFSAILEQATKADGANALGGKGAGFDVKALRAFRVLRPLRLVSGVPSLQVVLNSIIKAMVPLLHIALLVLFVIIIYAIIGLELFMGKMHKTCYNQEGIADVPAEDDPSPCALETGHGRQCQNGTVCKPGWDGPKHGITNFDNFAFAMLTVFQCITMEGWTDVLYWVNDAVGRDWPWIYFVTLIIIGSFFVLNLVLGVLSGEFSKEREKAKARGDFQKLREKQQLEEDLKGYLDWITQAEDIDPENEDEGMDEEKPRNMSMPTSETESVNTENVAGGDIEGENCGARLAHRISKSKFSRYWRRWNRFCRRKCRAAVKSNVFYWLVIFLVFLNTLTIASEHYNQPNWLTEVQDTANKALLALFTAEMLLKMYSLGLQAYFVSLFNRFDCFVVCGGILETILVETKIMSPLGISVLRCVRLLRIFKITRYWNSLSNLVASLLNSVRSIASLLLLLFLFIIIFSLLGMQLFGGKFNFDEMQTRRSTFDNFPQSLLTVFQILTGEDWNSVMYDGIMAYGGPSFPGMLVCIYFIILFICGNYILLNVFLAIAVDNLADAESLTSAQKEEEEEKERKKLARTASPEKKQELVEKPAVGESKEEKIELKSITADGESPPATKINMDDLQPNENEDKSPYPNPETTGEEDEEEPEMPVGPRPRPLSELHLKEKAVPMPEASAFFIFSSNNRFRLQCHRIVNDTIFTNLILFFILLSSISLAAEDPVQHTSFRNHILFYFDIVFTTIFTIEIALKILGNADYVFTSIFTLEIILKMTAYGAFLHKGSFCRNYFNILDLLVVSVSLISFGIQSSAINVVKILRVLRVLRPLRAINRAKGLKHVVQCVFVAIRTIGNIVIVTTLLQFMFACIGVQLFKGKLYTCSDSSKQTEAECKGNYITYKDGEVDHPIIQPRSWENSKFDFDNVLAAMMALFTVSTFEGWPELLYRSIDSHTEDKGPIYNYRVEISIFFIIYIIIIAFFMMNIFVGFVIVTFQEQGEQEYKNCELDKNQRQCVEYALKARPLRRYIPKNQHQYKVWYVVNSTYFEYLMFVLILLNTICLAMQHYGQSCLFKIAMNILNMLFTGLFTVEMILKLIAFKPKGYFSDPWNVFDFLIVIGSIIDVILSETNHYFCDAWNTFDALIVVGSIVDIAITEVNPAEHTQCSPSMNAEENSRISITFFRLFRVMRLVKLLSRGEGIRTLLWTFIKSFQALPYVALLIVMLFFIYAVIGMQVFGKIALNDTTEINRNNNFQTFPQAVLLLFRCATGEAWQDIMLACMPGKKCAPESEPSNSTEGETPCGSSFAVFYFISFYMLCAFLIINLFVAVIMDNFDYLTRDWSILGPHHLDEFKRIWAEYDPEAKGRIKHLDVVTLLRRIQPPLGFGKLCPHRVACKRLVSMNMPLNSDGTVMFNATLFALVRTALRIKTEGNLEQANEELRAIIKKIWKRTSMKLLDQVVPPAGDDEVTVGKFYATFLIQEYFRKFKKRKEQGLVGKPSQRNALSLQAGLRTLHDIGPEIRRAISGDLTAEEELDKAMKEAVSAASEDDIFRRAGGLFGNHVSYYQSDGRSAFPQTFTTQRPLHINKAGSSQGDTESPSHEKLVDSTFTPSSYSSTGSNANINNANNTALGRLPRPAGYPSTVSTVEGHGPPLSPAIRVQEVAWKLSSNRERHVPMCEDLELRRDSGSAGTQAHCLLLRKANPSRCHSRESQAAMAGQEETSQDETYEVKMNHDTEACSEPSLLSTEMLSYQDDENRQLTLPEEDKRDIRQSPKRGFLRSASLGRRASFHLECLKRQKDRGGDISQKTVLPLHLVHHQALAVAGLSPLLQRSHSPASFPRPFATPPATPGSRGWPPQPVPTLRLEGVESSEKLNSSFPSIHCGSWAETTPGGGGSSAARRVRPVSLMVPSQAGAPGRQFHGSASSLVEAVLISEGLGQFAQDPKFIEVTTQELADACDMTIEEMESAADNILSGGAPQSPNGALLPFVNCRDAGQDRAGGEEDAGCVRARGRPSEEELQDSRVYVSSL
T2 sequence (P07293 with tags, fused parts or gaps M367N): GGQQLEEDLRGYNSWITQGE
T3 sequence (P54288 2-606 isoform P54288-2 P122R): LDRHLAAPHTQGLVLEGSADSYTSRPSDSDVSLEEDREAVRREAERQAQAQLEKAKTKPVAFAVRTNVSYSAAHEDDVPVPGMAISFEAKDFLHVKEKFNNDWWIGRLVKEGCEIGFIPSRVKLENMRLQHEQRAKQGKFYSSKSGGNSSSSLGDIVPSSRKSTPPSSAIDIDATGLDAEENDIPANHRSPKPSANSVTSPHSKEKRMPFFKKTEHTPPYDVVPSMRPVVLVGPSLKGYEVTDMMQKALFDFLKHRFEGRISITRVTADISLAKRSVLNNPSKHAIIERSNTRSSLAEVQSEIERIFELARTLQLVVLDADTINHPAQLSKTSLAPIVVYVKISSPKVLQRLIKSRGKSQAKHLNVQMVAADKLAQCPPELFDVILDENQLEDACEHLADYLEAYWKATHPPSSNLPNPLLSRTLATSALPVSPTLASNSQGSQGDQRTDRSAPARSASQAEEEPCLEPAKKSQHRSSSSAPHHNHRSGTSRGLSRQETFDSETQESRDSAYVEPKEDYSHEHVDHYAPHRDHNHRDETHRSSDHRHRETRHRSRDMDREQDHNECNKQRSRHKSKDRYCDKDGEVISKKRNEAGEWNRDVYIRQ
T4 sequence (P54288 2-606 isoform P54288-2 P122R): as above

| Substance | Current amplitude, I at 20 mV (Cav1.2 (α1C)) | Current amplitude, I at 30 mV (Cav1.2 (α1C)) [µA] | Steady-state activation, V1/2 (membrane potential for half-maximal activation) (Cav1.2 (α1C)) [mV] | Steady-state activation, k (slope factor) (Cav1.2 (α1C)) [mV] | relative binding to labeled AID peptide [1] | current amplitude increase and change of steady-state activation (Cav1.2 (α1C)) | binding capability relative to WT (β2a protein [2]) | binding of AID peptide to β2a (β2a protein [3]) | koff (β) [s⁻¹] |
| --- | --- | --- | --- | --- | --- | --- | --- | --- | --- |
| Full β3 Pro.: recombinant full-length rat VDCC β3 subunit protein | -0.47 ± 0.04 µA | -0.44 ± 0.03 | 10.03 ± 3.36 | 10.56 ± 0.42 | – | – | – | – | – |
| β2a domain I: recombinant β2a domain I, residues 25 to 146 | -0.16 ± 0.01 µA | -0.18 ± 0.02 | 24.00 ± 3.01 | 12.18 ± 0.49 | negligible | – | – | – | – |
| domain II: β2a domain II released from NusA-domain II fusion by incubation with TEV protease | – | – | – | – | significant binding affinity for the AID | – | – | – | – |
| Core β3 Pro.: β3 core protein | -0.45 ± 0.04 µA | -0.41 ± 0.03 | 10.65 ± 4.46 | 10.06 ± 1.15 | – | – | – | – | – |
| d1 + d2 β2 Pro.: domain I + domain II prepared by proteolysis of full length protein and subsequent purification | -0.44 ± 0.04 µA | -0.34 ± 0.03 | 3.24 ± 0.93 | 9.49 ± 0.92 | – | significant changes in the current amplitude and activation shift | – | – | – |
| fluorescein-GGQQLEEDLRGSNSWITQGE-COOH (SEQ ID NO: 15) (fluorescein-GGQQLEEDLRGSNSWITQGE-OH; listed as Oryctolagus cuniculus) [mutant AID peptide, mutant AID peptide with single amino acid change Y to S] | – | – | – | – | – | – | less than five percent binding capability of WT | No binding | – |
| Full β2 Pro.: injected recombinant full-length β2a protein, later found to contain mutation P122R | -0.71 ± 0.09 µA | -0.49 ± 0.06 | 3.68 ± 0.33 | 8.48 ± 0.53 | – | – | – | – | – |
| Core β2 Pro.: injected recombinant β2a core protein | −0.87 ± 0.09 A | -0.7 ± 0.07 | 6.84 ± 0.83 | 8.43 ± 0.23 | – | corresponds well to full-length protein activity | – | – | – |
| AID: α1 interaction domain sequence of the α1 I-II linker that binds β | – | – | – | – | – | – | – | – | ~0.005 |
